Numbered stars: 1 amine (or outer) side, 2 acyl side, 3 side chain; on linkers, the order of the positions; unused ones are H or OH. Bridge positions count the residues as written; N and C are the ends. Side chains are listed from the residue outwards. Ends that are not written are not given here. * marks the point of attachment. C20 diacid = O=C(O)CCCCCCCCCCCCCCCCCCC(=O)*; γGlu = O=C(O)[C@H](CCC(=O)[*:2])N[*:1]; AEEA = NCCOCCOCC(=O)O
T1: human amylin receptor (amylin 3(a) receptor: human calcitonin receptor co-expressed with RAMP-3) (human, UniProt P30988 25-474; O60896 24-148, limits assumed)
T1 sequence (looked up) 1: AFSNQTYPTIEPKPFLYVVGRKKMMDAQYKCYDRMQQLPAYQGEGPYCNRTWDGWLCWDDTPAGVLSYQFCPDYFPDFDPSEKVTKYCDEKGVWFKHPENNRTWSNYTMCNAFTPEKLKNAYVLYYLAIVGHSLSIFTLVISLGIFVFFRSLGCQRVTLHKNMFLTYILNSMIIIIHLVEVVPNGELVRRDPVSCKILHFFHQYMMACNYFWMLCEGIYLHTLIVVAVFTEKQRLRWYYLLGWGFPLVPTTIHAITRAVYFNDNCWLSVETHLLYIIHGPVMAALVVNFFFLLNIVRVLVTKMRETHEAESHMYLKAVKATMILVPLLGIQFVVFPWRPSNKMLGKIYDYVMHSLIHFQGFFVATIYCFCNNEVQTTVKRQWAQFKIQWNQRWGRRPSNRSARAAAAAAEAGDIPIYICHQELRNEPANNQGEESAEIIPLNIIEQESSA
T1 sequence (looked up) 2: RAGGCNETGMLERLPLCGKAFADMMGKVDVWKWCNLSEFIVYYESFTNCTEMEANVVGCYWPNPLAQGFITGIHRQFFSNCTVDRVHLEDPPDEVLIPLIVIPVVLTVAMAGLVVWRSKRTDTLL

T2: human calcitonin receptor (human, UniProt P30988 25-474)
T2 sequence (looked up): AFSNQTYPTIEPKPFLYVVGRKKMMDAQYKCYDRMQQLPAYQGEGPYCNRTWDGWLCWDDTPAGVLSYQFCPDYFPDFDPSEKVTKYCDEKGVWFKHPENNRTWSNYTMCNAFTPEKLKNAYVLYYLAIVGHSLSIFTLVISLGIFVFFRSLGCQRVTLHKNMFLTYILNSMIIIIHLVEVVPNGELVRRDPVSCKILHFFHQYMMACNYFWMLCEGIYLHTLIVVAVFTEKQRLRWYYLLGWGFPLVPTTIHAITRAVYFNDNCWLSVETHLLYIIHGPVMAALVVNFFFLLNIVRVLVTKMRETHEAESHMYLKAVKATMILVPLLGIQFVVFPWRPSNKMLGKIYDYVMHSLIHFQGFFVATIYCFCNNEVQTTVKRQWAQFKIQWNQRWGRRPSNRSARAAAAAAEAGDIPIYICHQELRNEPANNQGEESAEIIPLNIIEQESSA


Tests used:
[1] = target: T1, human amylin receptor (amylin 3(a) …); assay: cell-based or functional assay
[2] = target: T2, human calcitonin receptor; assay: cell-based or functional assay

| Binder | hAmylin-R funct. EC50 [1] | Ratio hCT/hAmylin funct. (hCTR EC50 against hAmylin-R EC50) [2] | hCTR funct. EC50 [2] |
| --- | --- | --- | --- |
| K([AEEA-γGlu-C20 diacid])CNTATCATQRLAAFLRHSSPNFGAIPSSTPVGSNTY-NH2 (disulfide 2-7; N-terminus assumed; SMILES CC[C@H](C)[C@H](NC(=O)[C@H](C)NC(=O)CNC(=O)[C@H](Cc1ccccc1)NC(=O)[C@H](CC(N)=O)NC(=O)[C@@H]1CCCN1C(=O)[C@H](CO)NC(=O)[C@H](CO)NC(=O)[C@H](Cc1c[nH]cn1)NC(=O)[C@H](CCCNC(=N)N)NC(=O)[C@H](CC(C)C)NC(=O)[C@H](Cc1ccccc1)NC(=O)[C@H](C)NC(=O)[C@H](C)NC(=O)[C@H](CC(C)C)NC(=O)[C@H](CCCNC(=N)N)NC(=O)[C@H](CCC(N)=O)NC(=O)[C@@H](NC(=O)[C@H](C)NC(=O)[C@@H]1CSSC[C@H](NC(=O)[C@@H](N)CCCCNC(=O)COCCOCCNC(=O)CC[C@H](NC(=O)CCCCCCCCCCCCCCCCCCC(=O)O)C(=O)O)C(=O)N[C@@H](CC(N)=O)C(=O)N[C@@H]([C@@H](C)O)C(=O)N[C@@H](C)C(=O)N[C@@H]([C@@H](C)O)C(=O)N1)[C@@H](C)O)C(=O)N1CCC[C@H]1C(=O)N[C@@H](CO)C(=O)N[C@@H](CO)C(=O)N[C@H](C(=O)N1CCC[C@H]1C(=O)N[C@H](C(=O)NCC(=O)N[C@@H](CO)C(=O)N[C@@H](CC(N)=O)C(=O)N[C@H](C(=O)N[C@@H](Cc1ccc(O)cc1)C(N)=O)[C@@H](C)O)C(C)C)[C@@H](C)O, also called compound 72) | 106 pM | 44.9 | 4760 pM |
| K([AEEA-γGlu-C20 diacid])CNTATCATQRLANFLRHSSPNFGAIPSSTNVGHNTY-NH2 (disulfide 2-7; N-terminus assumed; SMILES CC[C@H](C)[C@H](NC(=O)[C@H](C)NC(=O)CNC(=O)[C@H](Cc1ccccc1)NC(=O)[C@H](CC(N)=O)NC(=O)[C@@H]1CCCN1C(=O)[C@H](CO)NC(=O)[C@H](CO)NC(=O)[C@H](Cc1c[nH]cn1)NC(=O)[C@H](CCCNC(=N)N)NC(=O)[C@H](CC(C)C)NC(=O)[C@H](Cc1ccccc1)NC(=O)[C@H](CC(N)=O)NC(=O)[C@H](C)NC(=O)[C@H](CC(C)C)NC(=O)[C@H](CCCNC(=N)N)NC(=O)[C@H](CCC(N)=O)NC(=O)[C@@H](NC(=O)[C@H](C)NC(=O)[C@@H]1CSSC[C@H](NC(=O)[C@@H](N)CCCCNC(=O)COCCOCCNC(=O)CC[C@H](NC(=O)CCCCCCCCCCCCCCCCCCC(=O)O)C(=O)O)C(=O)N[C@@H](CC(N)=O)C(=O)N[C@@H]([C@@H](C)O)C(=O)N[C@@H](C)C(=O)N[C@@H]([C@@H](C)O)C(=O)N1)[C@@H](C)O)C(=O)N1CCC[C@H]1C(=O)N[C@@H](CO)C(=O)N[C@@H](CO)C(=O)N[C@H](C(=O)N[C@@H](CC(N)=O)C(=O)N[C@H](C(=O)NCC(=O)N[C@@H](Cc1c[nH]cn1)C(=O)N[C@@H](CC(N)=O)C(=O)N[C@H](C(=O)N[C@@H](Cc1ccc(O)cc1)C(N)=O)[C@@H](C)O)C(C)C)[C@@H](C)O, also called compound 76) | 297 pM | 24.8 | 7370 pM |
| K([AEEA-γGlu-C20 diacid])CNTATCATQRLARFLRHSSPNFGAIPSSTPVGSNTY-NH2 (disulfide 2-7; N-terminus assumed; SMILES CC[C@H](C)[C@H](NC(=O)[C@H](C)NC(=O)CNC(=O)[C@H](Cc1ccccc1)NC(=O)[C@H](CC(N)=O)NC(=O)[C@@H]1CCCN1C(=O)[C@H](CO)NC(=O)[C@H](CO)NC(=O)[C@H](Cc1c[nH]cn1)NC(=O)[C@H](CCCNC(=N)N)NC(=O)[C@H](CC(C)C)NC(=O)[C@H](Cc1ccccc1)NC(=O)[C@H](CCCNC(=N)N)NC(=O)[C@H](C)NC(=O)[C@H](CC(C)C)NC(=O)[C@H](CCCNC(=N)N)NC(=O)[C@H](CCC(N)=O)NC(=O)[C@@H](NC(=O)[C@H](C)NC(=O)[C@@H]1CSSC[C@H](NC(=O)[C@@H](N)CCCCNC(=O)COCCOCCNC(=O)CC[C@H](NC(=O)CCCCCCCCCCCCCCCCCCC(=O)O)C(=O)O)C(=O)N[C@@H](CC(N)=O)C(=O)N[C@@H]([C@@H](C)O)C(=O)N[C@@H](C)C(=O)N[C@@H]([C@@H](C)O)C(=O)N1)[C@@H](C)O)C(=O)N1CCC[C@H]1C(=O)N[C@@H](CO)C(=O)N[C@@H](CO)C(=O)N[C@H](C(=O)N1CCC[C@H]1C(=O)N[C@H](C(=O)NCC(=O)N[C@@H](CO)C(=O)N[C@@H](CC(N)=O)C(=O)N[C@H](C(=O)N[C@@H](Cc1ccc(O)cc1)C(N)=O)[C@@H](C)O)C(C)C)[C@@H](C)O, also called compound 64) | 378 pM | 60.7 | 22900 pM |
| K([AEEA-γGlu-C20 diacid])CNTATCATQRLANFLRHSSPNFGAIPPSTPVGSNTY-NH2 (disulfide 2-7, also called compound 53) | 64 pM | 9.8 | 625 pM |
| K([AEEA-γGlu-C20 diacid])CNTATCATQRLANFLRHSSPNFGAIPPSTNVGPNTY-NH2 (disulfide 2-7; N-terminus assumed; SMILES CC[C@H](C)[C@H](NC(=O)[C@H](C)NC(=O)CNC(=O)[C@H](Cc1ccccc1)NC(=O)[C@H](CC(N)=O)NC(=O)[C@@H]1CCCN1C(=O)[C@H](CO)NC(=O)[C@H](CO)NC(=O)[C@H](Cc1c[nH]cn1)NC(=O)[C@H](CCCNC(=N)N)NC(=O)[C@H](CC(C)C)NC(=O)[C@H](Cc1ccccc1)NC(=O)[C@H](CC(N)=O)NC(=O)[C@H](C)NC(=O)[C@H](CC(C)C)NC(=O)[C@H](CCCNC(=N)N)NC(=O)[C@H](CCC(N)=O)NC(=O)[C@@H](NC(=O)[C@H](C)NC(=O)[C@@H]1CSSC[C@H](NC(=O)[C@@H](N)CCCCNC(=O)COCCOCCNC(=O)CC[C@H](NC(=O)CCCCCCCCCCCCCCCCCCC(=O)O)C(=O)O)C(=O)N[C@@H](CC(N)=O)C(=O)N[C@@H]([C@@H](C)O)C(=O)N[C@@H](C)C(=O)N[C@@H]([C@@H](C)O)C(=O)N1)[C@@H](C)O)C(=O)N1CCC[C@H]1C(=O)N1CCC[C@H]1C(=O)N[C@@H](CO)C(=O)N[C@H](C(=O)N[C@@H](CC(N)=O)C(=O)N[C@H](C(=O)NCC(=O)N1CCC[C@H]1C(=O)N[C@@H](CC(N)=O)C(=O)N[C@H](C(=O)N[C@@H](Cc1ccc(O)cc1)C(N)=O)[C@@H](C)O)C(C)C)[C@@H](C)O, also called compound 55) | 68 pM | 10.8 | 731 pM |
| K([AEEA-γGlu-C20 diacid])CNTATCATQRLANFLRHSSPNFGAIPSSTNVGRNTY-NH2 (disulfide 2-7; N-terminus assumed; SMILES CC[C@H](C)[C@H](NC(=O)[C@H](C)NC(=O)CNC(=O)[C@H](Cc1ccccc1)NC(=O)[C@H](CC(N)=O)NC(=O)[C@@H]1CCCN1C(=O)[C@H](CO)NC(=O)[C@H](CO)NC(=O)[C@H](Cc1c[nH]cn1)NC(=O)[C@H](CCCNC(=N)N)NC(=O)[C@H](CC(C)C)NC(=O)[C@H](Cc1ccccc1)NC(=O)[C@H](CC(N)=O)NC(=O)[C@H](C)NC(=O)[C@H](CC(C)C)NC(=O)[C@H](CCCNC(=N)N)NC(=O)[C@H](CCC(N)=O)NC(=O)[C@@H](NC(=O)[C@H](C)NC(=O)[C@@H]1CSSC[C@H](NC(=O)[C@@H](N)CCCCNC(=O)COCCOCCNC(=O)CC[C@H](NC(=O)CCCCCCCCCCCCCCCCCCC(=O)O)C(=O)O)C(=O)N[C@@H](CC(N)=O)C(=O)N[C@@H]([C@@H](C)O)C(=O)N[C@@H](C)C(=O)N[C@@H]([C@@H](C)O)C(=O)N1)[C@@H](C)O)C(=O)N1CCC[C@H]1C(=O)N[C@@H](CO)C(=O)N[C@@H](CO)C(=O)N[C@H](C(=O)N[C@@H](CC(N)=O)C(=O)N[C@H](C(=O)NCC(=O)N[C@@H](CCCNC(=N)N)C(=O)N[C@@H](CC(N)=O)C(=O)N[C@H](C(=O)N[C@@H](Cc1ccc(O)cc1)C(N)=O)[C@@H](C)O)C(C)C)[C@@H](C)O, also called compound 78) | 316 pM | 25.8 | 8160 pM |

— patent publication US20140087995A1 (published 2014)
